The test deals with ubiquitin^TAMRA (C-terminal TAMRA-labelled ubiquitin) (UniProt P0CG48 1-76, TAMRA label at the C-terminus). Nature of the test: fluorescence polarisation. A general note: In fluorescence polarisation assays a small probe gives low polarisation when free and higher when bound to something large.

From PMC3463842 (The EMBO Journal, 2012) come the findings set out here.

The Kd is a measure of binding affinity in units of concentration. High values mean a looser complex, low ones a tighter complex.

B1: HOIP^RBR-LDD (699–1072), as used in the FP assay (domain or fragment)
chain: CAVCGWALPHNRMQALTSCECTICPDCFRQHFTIALKEKHITDMVCPACGRPDLTDDTQLLSYFSTLDIQLRESLEPDAYALFHKKLTEGVLMRDPKFLWCAQCSFGFIYEREQLEATCPQCHQTFCVRCKRQWEEQHRGRSCEDFQNWKRMNDPEYQAQGLAMYLQENGIDCPKCKFSYALARGGCMHFHCTQCRHQFCSGCYNAFYAKNKCPEPNCRVKKSLHGHHPRDCLFYLRDWTALRLQKLLQDNNVMFNTEPPAGARAVPGGGCRVIEQKEVPNGLRDEACGKETPAGYAGLCQAHYKEYLVSLINAHSLDPATLYEVEELETATERYLHVRPQPLAGEDPPAYQARLLQKLTEEVPLGQSIPRRRK
Turning to B1, the Kd was determined as 118 µM.

B2: HOIP^RBR-LDD C930A (domain or fragment)
chain: CAVCGWALPHNRMQALTSCECTICPDCFRQHFTIALKEKHITDMVCPACGRPDLTDDTQLLSYFSTLDIQLRESLEPDAYALFHKKLTEGVLMRDPKFLWCAQCSFGFIYEREQLEATCPQCHQTFCVRCKRQWEEQHRGRSCEDFQNWKRMNDPEYQAQGLAMYLQENGIDCPKCKFSYALARGGCMHFHCTQCRHQFCSGCYNAFYAKNKCPEPNCRVKKSLHGHHPRDALFYLRDWTALRLQKLLQDNNVMFNTEPPAGARAVPGGGCRVIEQKEVPNGLRDEACGKETPAGYAGLCQAHYKEYLVSLINAHSLDPATLYEVEELETATERYLHVRPQPLAGEDPPAYQARLLQKLTEEVPLGQSIPRRRK
B2 returned a Kd of 83 µM.
